For nine sequences, binding results are on record in paper PMC8531726.

The data set has as its system T1, Zur (Pseudomonas aeruginosa), ORF:f39b2fc0.
T1 sequence: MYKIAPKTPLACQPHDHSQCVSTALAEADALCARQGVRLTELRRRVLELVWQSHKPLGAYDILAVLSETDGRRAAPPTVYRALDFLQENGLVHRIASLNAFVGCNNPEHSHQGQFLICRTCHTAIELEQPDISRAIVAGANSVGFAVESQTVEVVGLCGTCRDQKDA
Nature of the data set: EMSA. The note with it: EMSA: 30 ng DNA, 500 nM Zur, 5X Zn-less binding buffer (50 mM Tris, 200 mM KCl, 50 mM MgCl2, 5 mM DTT, 25% glycerol; 5X [sic], pH not given), 5 uM ZnCl2 ….

Take “CTCTGCCAGACCAGTTCCAGCACGCGCCGCCGCAGTTCGGTCAGGCGCACGCCCTGGCGCGCGCACAGCGCATCGGCCTCGGCCAGCGCGGTGCTGACGCACTGGCTGTGGTCATGGGGCTGGCAGGCCAGCGGGGTCTTGGGCGCAATCTTGTACATGGGCTGCGACGCTCGAGGGTAGAGACGTTATTATATTACCCGCTAACCACCTTTCA (double strand) [pznuA]”: the binding result was “binds”.

For “ATGGGCCTGGGCGGCGAACGGCAGCAAGACGAGGGCTAACAGCAGTGGGCGCATGAACGGGACTCCGGCAAGGAAGGAAAAGAGTTTGTTACGTTATAACGAATTTTTCCGCCTGCCTAGCCTGGCCGATTTGGCCCCTACGCGCCGACGTGGGAGCATGGCGCGATTCGCTTGTGGAGAAAC (double strand) [pPA4063]”, the binding entry is on record as “binds”. On to “GGCTGGGCTGGTCGTCGGAAAAGAGGGATGAGTATCACAGCCTGGCGGCGAGAAGCGAGATAGAGCCGGGCATTGTATTGCGAGGCCGGAATCGAACTGGTAGCGTTATAGTATATCATTTCTTTTCTGGTGCGATTTCCCATGAGAGTCAGTGTGTCGCTTGTCCTCGGTGTCGGCCTCGGTTGCAGCAGTCCGGCGCTCTGGGCGGAAACGGAAAGTCCCGCGG (double strand) [pzrmA]”, for which the binding entry is recorded as “binds”. “ACTTTCCCGTTCCTCTTCGCCGGCAGGCATGCGGACATTGCCGCTGCACGTCGGCACGACGCCATGCAGAGTGGCTACGCGGGTCTACCGACACAAAAAGAAATAATATAACATCCCAATAAATACGCCGATCCGACCCCGTCGCCCTTCCTCCGGGAAGGGCCTGGGTTCGCTTTGGCCTGAAAAAAGTCCGACCCA (double strand) [pznuD]”: the binding entry is recorded as “binds”. On to “GAGCGCCATGATCTGCTCGGTTGCGGTCATCTTTCCTCCTGGGGGGCATGCCCGGTTGAGAGTGGGGTCCTGTGCTTCGAGGGATACGGCGAGCGAGACGTTCCCTCGCCTCGATGAAGAAGAAACGGCGGGCATTCTTCATTCGAAGAAATGTTATGTTATAACTTATAAGTATTTATAATTCATACCTGCCGACCATGACCCCCCATTCCTCCCCGCACCGTCTTCCTCCGCTGCGGCTGGCCCGCGCCGTGCCGTTCCTCTACCTGCTTC (double strand) [pPA1922]”, for which the binding entry is “binds”.

As for “AGAAGTCCTGCTGGGCTTCGTCCATGTAGGCAGCGTCGGGCTGGGCAAGCAGTTCCTGTTCGGTCATGGGCTGAACCTGGGAAATTTAAAACGTTATACTATAACAATTAACACCACAATCGATGGCCCGCCAATCGCCTTCCGGCTACCCTGGGCCCACGTCATCCCGGGATCCACCGATGCGCCGCGTCCTCCGCCTTTACT (double strand) [pdksA2]”, the binding result was “binds”. As for “CATAGCAGGCCGGCGTGAAGAAAATGTGATGACCCGGGAAGCTGCGCCAGGGCGTGGGGTCCGGCGAAGAAAGACTGCACAAGCGAATTGTTATAGTATAACATTTTATTCAATCCAGATCGTTCAAGGCTTGACTGGAAACGGTGCGGATGTTCCCATCCGGCCCGTTCCAGGTGCCTCCTGCCGCCGCGCAGGAGGTGAAACGGGAAGCCGGTGCGTCACTTCGGTGA (double strand) [pPA2911]”, the binding entry is given as “binds”. With “GTGCTGCACACAGACTCTCGTCTTCCAGTCAAGAGCCTTGGGATGCAGACTGTTTTTCAAATCATGACAACTTCTTAACGCGCATTGTTATAAAGTTGCGGGCGTTTGCGCCGGCCTGGCCGGTACCTTCGAGTTTTGCCTGGAGTGAAGATGAGAGTCGACCTGGAC (double strand) [pPA2439]”, the binding result is “binds”. Then “TCGAGCAGCCGAATGGTCGCCGGGAACTCTTTCCGGAGTTGCGAATTATTCTTATCGGAGTAATATGTAACTATATAACATTATGTAGGAGGCATCCCCATGAAACCCGGCATCCATCCCGAATACCGTCCCGTCCTGTTCCATGACACCTCGGCCGACGTGTACTTCCTGATCGGCTCCACC (double strand) [prpmE2]”, with “binds”.
